We go through two molecules from PMC7112233, “E2f5 is a versatile transcriptional activator required for spermatogenesis and multiciliated cell differentiation in zebrafish”.

This data set addresses T1, E2f5 (zebrafish, UniProt A5WUE8 1-363).
T1 sequence: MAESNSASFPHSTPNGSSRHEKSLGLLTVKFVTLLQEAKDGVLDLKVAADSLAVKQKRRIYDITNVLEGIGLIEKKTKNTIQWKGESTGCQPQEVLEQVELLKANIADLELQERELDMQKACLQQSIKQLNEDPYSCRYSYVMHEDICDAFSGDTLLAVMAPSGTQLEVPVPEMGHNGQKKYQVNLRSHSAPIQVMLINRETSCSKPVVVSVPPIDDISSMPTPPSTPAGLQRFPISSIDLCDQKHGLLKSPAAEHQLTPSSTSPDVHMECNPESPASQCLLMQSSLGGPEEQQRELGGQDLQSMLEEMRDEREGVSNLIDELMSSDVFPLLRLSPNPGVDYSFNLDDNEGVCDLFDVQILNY
Briefly: EMSA; 10 mM Tris-HCl pH 8.0, 50 mM NaCl, 1 mM MgCl2, 0.5 mM EDTA, 0.5 mM DTT, 4% glycerol; 3 ug protein, 1 ul annealed oligo (25 uM stock); 40 min room temperature; 6.5% native PAGE. As to conditions: protein: recombinant; tags: His (pET30A, Ni-NTA purified); label: 5'-FAM; annealed with complementary oligonucleotide. In general terms: Mobility shift assays separate free from complexed probe on a gel.

B1: dmc1 E2F site wild-type probe (dsDNA)
DNA 1: TGTCAACATACGATTGTGGCGCGAAATTTCTTTCAGC
DNA 2: GCTGAAAGAAATTTCGCGCCACAATCGTATGTTGACA
On to B1, for which the binding result is listed as “binds”.

B2: dmc1 E2F site mutant probe (dsDNA)
DNA 1: TGTCAACATACGATTGTAAATTTAAATTTCTTTCAGC
DNA 2: GCTGAAAGAAATTTAAATTTACAATCGTATGTTGACA
As to B2, the binding result was “no binding”.
